Experimental data as given in the supplement of paper PMC10567573.
± gives the standard deviation.

Experiment: protein stability index of a GFP-peptide fusion (GPS, HEK-293T) (PSI 1-6); higher = more stable
[1] = treatment: DMSO, c terminus: a fixed tail appended
[2] = treatment: MLN4924 1 uM, 8 h, c terminus: a fixed tail appended
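Note: 24-mer peptide tiles fused after GFP, lentivirally expressed, FACS-sorted into six equal bins by GFP/DsRed ratio, decoded by Illumina sequencing, PSI is the read-weighted mean bin number.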

Sequence | protein stability index [1] | protein stability index [2] | protein stability index (treatment: DMSO, c terminus: native) | protein stability index (treatment: MLN4924 1 uM, 8 h, c terminus: native)
RDEESFFGERRIPRGRRISVICRS [ALKBH7] | 3.24 ± 0.24 | 3.65 ± 0.24 | – | –
RDEHRARAMKIPFTNDKIINLPVE [NFE2L1] | 4.12 ± 0.36 | 3.95 ± 0.14 | – | –
RDNAELENLIRERSQQQEPLLCPS [KRT33B] | 4.98 ± 0.23 | 4.87 ± 0.21 | – | –
REAKEGDCGDILRLIRELAEFEKL [SAT2] | 2.95 ± 0.3 | 3.09 ± 0.47 | – | –
REAKMICFKSVAKTPYDTSRRQEK [ELOA2] | 3.97 ± 0.22 | 4.11 ± 0.58 | – | –
REPYYARPEPELETFSPPLPAGPG [CPXM2] | 4.7 ± 0.26 | 4.47 ± 0.38 | – | –
RETLKRKVSGNRCASPVTGPGSKR [ESR2] | 3.92 ± 0.32 | 4.1 ± 0.2 | – | –
RETNKSRGFAFVTFESPADAKDAA [RBMX] | 4.34 ± 0.32 | 4.39 ± 0.38 | – | –
RGAPRGGGRGGSRSDRGGGRSRY [RBMX] | – | – | 5.34 ± 0.14 | 5.33 ± 0.11
RGAQGVILVYDIANRWSFEGMDRW [RAB40A] | 2.57 ± 0.37 | 2.28 ± 0.28 | – | –
RGDERILSILRHQNLLKELQDLAL [CHGA] | 2.36 ± 0.4 | 2.41 ± 0.29 | – | –
RGIIMTFGSGSNGCLGHGSLTDIS [NEK8] | 2.45 ± 0.22 | 2.4 ± 0.31 | – | –
RGLGLGGRRLKSPQAPDPEEEENR [FANCE] | 5.11 ± 0.23 | 5.58 ± 0.38 | – | –
RGNVVLRAQMIRNEYRKLHPVLHK [TRIM43] | 2.25 ± 0.38 | 2.77 ± 0.56 | – | –
RHTSPVFSPANPESSMEDCLAHLG [BCL2L13] | 4.24 ± 0.069 | 4.31 ± 0.29 | – | –
RILGLDQKKDCVPLMKPHRPWADT [HESX1] | 2.34 ± 0.17 | 2.36 ± 0.24 | – | –
RKDKDVARLQDFQELELVLMISEN [ANKRD40] | 2.1 ± 0.47 | 2.13 ± 0.56 | – | –
RKPSVPWQRQMDQPQDRNQALGTH [RASAL3] | 4.08 ± 0.16 | 4.21 ± 0.19 | – | –
RLCTWLLALSPDLSLSNATVLTRS [FANCE] | 2.92 ± 0.47 | 3.02 ± 1 | – | –
RLLKTLETSRSHDLEAVVPQNGSE [ATP23] | 4 ± 0.23 | 4.09 ± 0.19 | – | –
RLLSHDQVAMPYQWEYPYLLSILP [JAGN1] | 2.15 ± 0.19 | 1.99 ± 0.16 | – | –
RLTSQDWERVHLIVAGGYDERVLE [ALG2] | 3.06 ± 0.28 | 3.21 ± 0.27 | – | –
RLVPGGQRPADVPEPGRAGYPAPR [HAGHL] | 4.59 ± 0.13 | 4.68 ± 0.1 | – | –

Sequence | protein stability index [1] | protein stability index [2] | protein stability index (treatment: DMSO, c terminus: native) | protein stability index (treatment: MLN4924 1 uM, 8 h, c terminus: native)
RLWRLFQTLDVNRDGGLCVNDLAV [SLC25A25] | 2.56 ± 0.2 | 2.49 ± 0.17 | – | –
RNLGSINTELQDVQRIMVANIEEV [SEC22B] | 4.1 ± 0.15 | 4.05 ± 0.044 | – | –
RPKDTVMCYRVRWEEAAPGRAVEH [MYORG] | 2.85 ± 0.39 | 2.91 ± 0.35 | – | –
RPSRSGAQQLEEEGPMEEEEAQPM [EID1] | 5.66 ± 0.25 | 5.53 ± 0.2 | – | –
RRNLEEDDYLHKDTGETSMLKRPV [STEAP1] | 4.69 ± 0.13 | 4.76 ± 0.19 | – | –
RRSFLNAHHRSGAQVFPESPESES [GNAS] | 5.02 ± 0.25 | 5.03 ± 0.11 | – | –
RRSVRKNHMYSCRFSRQCVVDKDK [HNF4A] | 3.02 ± 0.24 | 3.2 ± 0.24 | – | –
RRTRGPVERAAAAAAAAAGGDAGH [C6orf223] | 4.91 ± 0.31 | 5.07 ± 0.17 | – | –
RSFVEKHRWPSNMYLKQLAEYRKY [RHOBTB3] | 2.38 ± 0.24 | 2.62 ± 0.74 | – | –
RSLFSSVPSKPPMSLEPQNGTYAG [ANKRD40] | 3.51 ± 0.19 | 4.29 ± 0.41 | – | –
RSLGPRAPSLRRHVLIHNTLQQLQ [SERTAD3] | 2.64 ± 0.25 | 3.05 ± 0.19 | – | –
RSLLRLRATRAGAAEEPGVRGLLA [C2CD2L] | 3.17 ± 0.43 | 3.44 ± 0.18 | – | –
RSQMQGPRTRARLGANEVLLVVGG [KLHL12] | 2.39 ± 0.39 | 2.62 ± 0.37 | – | –
RSSSRINIPERASGPEGNLNQIVT [FAM104B] | 4.28 ± 0.27 | 4.36 ± 0.2 | – | –
RTGLEKAAAGAVGLERRDWSPSPP [SPDEF] | 4.55 ± 0.2 | 4.49 ± 0.25 | – | –
RTLRNFINDEMQAKGIPQRAPPKR [PCMTD1] | 4.06 ± 0.16 | 3.98 ± 0.36 | – | –
RTSCSSRPCVPPSCHGYTLPGACN [KRT33B] | 2.67 ± 0.3 | 2.56 ± 0.17 | – | –
RTVKLIRYVSNWDFFIVGCEVIFC [PKD2L1] | 2.79 ± 0.56 | 2.58 ± 0.47 | – | –
RVYPKCTWLTTPKSTWPRYSKPGL [TCF25] | 2.59 ± 0.23 | 2.46 ± 0.12 | – | –
RYAEHVAATQALPQDSGTAAWKGR [C22orf31] | 4.1 ± 0.17 | 4.14 ± 0.35 | – | –
RYFIADLPHLQDSFVDKLLDLMPR [INTS4] | 2.16 ± 0.29 | 2.27 ± 0.29 | – | –
RYSSDTTPLLNGSSQDRMFETMAI [GOSR1] | 3.29 ± 0.77 | 3.27 ± 0.24 | – | –
SALPTGSPKRGTAPGDLSATEPAT [FBF1] | 5.32 ± 0.36 | 5.32 ± 0.086 | – | –

Sequence | protein stability index [1] | protein stability index [2] | protein stability index (treatment: DMSO, c terminus: native) | protein stability index (treatment: MLN4924 1 uM, 8 h, c terminus: native)
SDPCGQLRPTLLLTSLHHFMHSRN [PNLIPRP1] | 2.3 ± 0.35 | 2.6 ± 0.24 | – | –
SDVDQLYLIIRTLGKLIPRHQSIF [CDKL4] | 3 ± 1.2 | 2.67 ± 0.77 | – | –
SDVVEYAKEKLESFIKNSDSFDKF [PCMTD1] | 3.7 ± 0.17 | 4.16 ± 0.38 | – | –
SDWFNFHGHMCIAFELLGKNTFEF [CLK3] | 3 ± 0.3 | 2.94 ± 0.31 | – | –
SEDEEEYESGYAFLPDLLIFQMVI [SMG5] | 2.76 ± 0.62 | 2.59 ± 0.53 | – | –
SERCQRQLQSLCRGLGLGGRRLKS [FANCE] | 3.22 ± 0.36 | 3.49 ± 0.47 | – | –
SFHPLQYIGFYGKETTNTCILKCN [PDS5B] | 1.99 ± 0.44 | 2.27 ± 0.35 | – | –
SFPRNNISYLVLSMISMGLFSIAP [JAGN1] | 3.32 ± 0.2 | 3.42 ± 0.42 | – | –
SGAVGARRFLLCLYLVGFLDLFGV [MFSD9] | 2.99 ± 0.54 | 2.84 ± 0.37 | – | –
SGRFAGREWYYGNVTRHQAECALN [NCK2] | 2.31 ± 0.16 | 2.47 ± 0.22 | – | –
SGSGNRLDGKKKGVEPSPSPIKPG [UFD1] | 4.61 ± 0.29 | 4.72 ± 0.079 | – | –
SHFVFVIEVKTKGGSKYLIYRRYR [NCF4] | 2.81 ± 0.56 | 2.48 ± 0.33 | – | –
SHHLAVYNSPQFKKTMSTFHNLVS [FBXO39] | 2.25 ± 0.28 | 2.31 ± 0.1 | – | –
SHKERFDPSGKGKGKAGRVDLVDE [TPPP] | 5.04 ± 0.46 | 5.24 ± 0.2 | – | –
SHLLVVEPEKLYAMPDPAGPDGHL [ESRRA] | 3.68 ± 0.17 | 3.82 ± 0.27 | – | –
SHYTSPSENMWNTGSTYNLSSGMA [CARM1] | 2.84 ± 0.37 | 3.14 ± 0.21 | – | –
SIAFRLRLASFDSSGKLICSRTTG [GMCL1] | 2.52 ± 0.4 | 2.09 ± 0.34 | – | –
SICMRMEILGCPLPDPNNYYHRRN [CPXM2] | 2.68 ± 0.27 | 2.46 ± 0.24 | – | –
SIVAQVDQTGSKSSNLLDLKNPFF [CARM1] | 3.01 ± 0.15 | 3.43 ± 0.27 | – | –
SKAQELGGAGREDPGLWSRLCRLA [ZSWIM9] | 2.96 ± 0.13 | 3.38 ± 0.33 | – | –
SKIFTTLDPASLAWLTEEEPEPAE [DDIT3] | 5.14 ± 0.54 | 5.11 ± 0.27 | – | –
SLDEFRQTWKLFSSHMNIDITDDC [PPEF2] | 2.49 ± 0.3 | 2.75 ± 0.21 | – | –
SLEHTLRVAIAHYQDDPDLRFLLD [TSPAN10] | 2.69 ± 0.16 | 2.98 ± 0.14 | – | –

Sequence | protein stability index [1] | protein stability index [2] | protein stability index (treatment: DMSO, c terminus: native) | protein stability index (treatment: MLN4924 1 uM, 8 h, c terminus: native)
SLGKQKVFIIRKSLLDELMEVQHF [SOAT2] | 2.58 ± 0.52 | 2.56 ± 0.73 | – | –
SLLGLLSFPRNNISYLVLSMISMG [JAGN1] | 3.11 ± 0.33 | 3.01 ± 0.71 | – | –
SLLVTELGSSRTPETVRMVLSNME [IMPA1] | 3.15 ± 0.39 | 3.4 ± 0.23 | – | –
SLPPPAGLNSSWVELPMNSSNGND [BNIP3L] | 4.94 ± 0.26 | 4.88 ± 0.29 | – | –
SLQQQHQADLELIESAHRSRIKVL [FBF1] | 3.53 ± 0.074 | 3.47 ± 0.31 | – | –
SLSTSSSSSPPGTPSPADAKAPPT [CEBPB] | 5.42 ± 0.15 | 5.34 ± 0.19 | – | –
SLVTVGKHLTARVLCLIVLPLALY [POMT2] | 2.63 ± 0.58 | 2.58 ± 0.33 | – | –
SMIQEQFKKGKNPTGLLALQQIAD [ADD1] | 3.08 ± 0.18 | 3.17 ± 0.32 | – | –
SMQAVLDYLYTKQLSPNLDLDPLE [RHOBTB1] | 2.47 ± 0.37 | 2.19 ± 0.47 | – | –
SNASEDTRRLRLAHVGMELQLKQE [SCARA5] | 4.29 ± 0.33 | 4.4 ± 0.29 | – | –
SNEFKESALTLACYKGHLEMVRFL [ANKRD17] | 2.21 ± 0.18 | 2.4 ± 0.34 | – | –
SNFPRQYFALRKILKQLIADVTLD [TRIM39] | 2.54 ± 0.58 | 2.19 ± 0.53 | – | –
SNSSQDSLHKGAKRKGIKSSIGRL [PPFIA4] | 4.17 ± 0.22 | 4.22 ± 0.16 | – | –
SNWFVWVTQMNHIPMHIDHDRNMD [FADS1] | 2.09 ± 0.45 | 2.19 ± 0.13 | – | –
SPALQVMGPAQEAPVAEAWIPQAG [ZNF449] | 4.6 ± 0.086 | 4.65 ± 0.27 | – | –
SPSFQLKAAALPPFPLGASAQNGL [PLAGL1] | 3.41 ± 0.32 | 3.52 ± 0.4 | – | –
SPSPPVEVKIEEPVSMEMDNHMSD [INTS3] | 5.59 ± 0.19 | 5.52 ± 0.17 | – | –
SQAIDLLYWRDIKQTGIVFGSFLL [RTN1] | 3.03 ± 0.81 | 3.01 ± 0.47 | – | –
SQAPDGRRKSEAGSGAASSSGEDK [CDC25B] | 5.65 ± 0.18 | 5.58 ± 0.35 | – | –
SQFLKHQQTHNIEKAHECTDCGKA [ZNF649] | 4.88 ± 0.26 | 4.985 ± 0.041 | – | –
